Experimental data as given in PMC4359373, “Mechanistic insight into the conserved allosteric regulation of periplasmic proteolysis by the signaling molecule cyclic-di-GMP” (eLife, 2014).

Target: L. pneumophila CdgS9 periplasmic output domain (CdgS9^Output, residues 22-152) (L. pneumophila)
Experiment: […]; 25 mM Tris-HCl pH 7.4, 100 mM NaCl, 25°C; […]

**Q.** How did the stoichiometry N turn out when “L. pneumophila CdgS9 periplasmic output domain (CdgS9^Output, residues 22-152) (domain or fragment)” was run?
**A.** 2

**Q.** For L. pneumophila LapG (enzyme), which stoichiometry N (CdgS9^Output chains per LapG (2:1)) is on record?
**A.** 2
